Common to all, as to conditions: 20 nM; 72 h
Data set [1] deals with MCF10A. Nature of the data set: percent viability (nuclei count relative to siNT); higher = more viable cells. On the procedure: (§1)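 After 72 h, cells were fixed and stained with Hoechst and anti-fibrillarin, and nucleoli per nucleus were counted with CellProfiler. Values are plate-adjusted percent effect for the one-nucleolus and 5+ nucleoli phenotypes, normalised to siNT (0%) and to the positive controls siNOL11 or siKIF11 (100%), as the mean of biological triplicates. Percent viability is the nuclei count relative to siNT.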

For data set [2], the system named is MCF10A. Briefly: 5+ nucleoli phenotype percent effect (relative to siNT 0% and siKIF11 100%); higher = more cells with five or more nucleoli. On the procedure: as §1
Data set [3] concerns MCF10A. Nature of the data set: one-nucleolus phenotype percent effect (relative to siNT 0% and siNOL11 100%); higher = more cells with one nucleolus (ribosome biogenesis inhibition). As to the method:
as §1

In the case of “AAAAGUAAUCGCGGUUUUUGUC [hsa-miR-548h-5p]”, the percent viability with MCF10A [1] turned out to be 101%. Also, the “5+ nucleoli phenotype percent effect” value in the data set on MCF10A [2] was found to be 35.8%. For the same sequence, the “one-nucleolus phenotype percent effect” value with MCF10A [3] is -19.1%.
On the same counts, the results for “AGUGGCACAUGUUUGUUGUGAG [hsa-miR-891a-3p]” are 32.1%, -11.2% and 35%.
On the same counts, the results for AAAGGUAACUGUGAUUUUUGCU [hsa-miR-548ba] are 146%, 38.2% and -24.2%.
On the same counts, the results for “UAGAGUCUGGCUGAUAUGGUUU [hsa-miR-5007-5p]” are 49.3%, -8% and 14%.
Take “UCUACAGUGCACGUGUCUCCAGU [hsa-miR-139-5p]”: the percent viability in the data set on MCF10A [1] stood at 67.5%. In the data set with MCF10A [2], the “5+ nucleoli phenotype percent effect” value was -2.1%. Moreover, in the data set with MCF10A [3], the “one-nucleolus phenotype percent effect” value was -8.78%.
On the same counts, the results for AUGGAUAAGGCUUUGGCUU [hsa-miR-1261] are 50.3%, -12.9% and 24.4%.
On the same counts, the results for “AUAGCAGCAUAAGCCUGUCUC [hsa-miR-4524b-5p]” are 21%, -6.19% and -0.0215%.
On the same counts, the results for CAAAAACUGCAAUUACUUUCA [hsa-miR-548ae] are 153%, 38.6% and -34.4%.
“UCAGGUGUGGAAACUGAGGCAG [hsa-miR-3934-5p]”: in the data set on MCF10A [1], the percent viability turned out to be 42.8%. In addition, the “5+ nucleoli phenotype percent effect” value in the data set on MCF10A [2] is -10.9%. The “one-nucleolus phenotype percent effect” value with MCF10A [3] was found to be 10.5%.
Consider UGUAACAGCAACUCCAUGUGGA [hsa-miR-194-5p], for which the percent viability with MCF10A [1] is 84.3%. Moreover, the “5+ nucleoli phenotype percent effect” value in the data set on MCF10A [2] was -7.22%. Also, in the data set with MCF10A [3], the “one-nucleolus phenotype percent effect” value was determined as 8.64%.
As to GAGGCAGAAGCAGGAUGACA [hsa-miR-1910-3p], the percent viability in the data set with MCF10A [1] stood at 38.6%. Moreover, in the data set on MCF10A [2], the “5+ nucleoli phenotype percent effect” value is -17.5%. Besides, in the data set on MCF10A [3], the “one-nucleolus phenotype percent effect” value was 25.3%.
“GUAGAUUCUCCUUCUAUGAGUA [hsa-miR-376a-5p]”: in the data set with MCF10A [1], the percent viability turned out to be 24.5%. Moreover, the “5+ nucleoli phenotype percent effect” value in the data set on MCF10A [2] came to 11.8%. Also, the “one-nucleolus phenotype percent effect” value with MCF10A [3] was -7.97%.
The corresponding values for GGCCUUGUUCCUGUCCCCA [hsa-miR-4312] are 22.7%, -25.8% and 56%.
On the same counts, the results for “UACUCCAGAGGGCGUCACUCAUG [hsa-miR-508-5p]” are 60.6%, 0.947% and 19.6%.
On the same counts, the results for CACAUUACACGGUCGACCUCU [hsa-miR-323a-3p] are 49.9%, -33.7% and 12.4%.
Regarding GUGUUCUCUGAUGGACAG [hsa-miR-4273], the percent viability with MCF10A [1] amounted to 49.3%. For the same sequence, the “5+ nucleoli phenotype percent effect” value in the data set with MCF10A [2] is 10.3%. In the data set on MCF10A [3], the “one-nucleolus phenotype percent effect” value was -6.59%.
On the same counts, the results for CCGGCCGCCGGCUCCGCCCCG [hsa-miR-1908-3p] are 96%, 44.4% and -14.6%.
On the same counts, the results for GUAGCACCUUGCAGGAUAAGGU [hsa-miR-5682] are 72.9%, 12.2% and -21.5%.
The corresponding values for CAUCCGUCCGUCUGUCCAC [hsa-miR-4800-3p] are 67.4%, -3.64% and -2.39%.
For AUAUGCCUGGCUAGCUCCUC [hsa-miR-4633-5p], the percent viability in the data set on MCF10A [1] was found to be 31.4%. Moreover, the “5+ nucleoli phenotype percent effect” value with MCF10A [2] is -31.2%. For the same sequence, the “one-nucleolus phenotype percent effect” value in the data set on MCF10A [3] amounted to 27.8%.
On the same counts, the results for AAGGGACAGGGAGGGUCGUGG [hsa-miR-7845-5p] are 60.5%, 2.91% and -13.3%.
Take “GUGAGGCGGGGCCAGGAGGGUGUGU [hsa-miR-6765-5p]”: the percent viability in the data set on MCF10A [1] is 72.9%. In addition, in the data set with MCF10A [2], the “5+ nucleoli phenotype percent effect” value turned out to be 16%. Besides, in the data set with MCF10A [3], the “one-nucleolus phenotype percent effect” value is -21.4%.
The corresponding values for ACAGGCGGCUGUAGCAAUGGGGG [hsa-miR-3937] are 33.1%, -33.4% and 31.6%.
On the same counts, the results for GUUUCACCAUGUUGGUCAGGC [hsa-miR-5096] are 49%, -17.6% and 21.9%.
Regarding CCUCUCCUCCCUGUGCCCCAG [hsa-miR-6845-3p], the percent viability in the data set with MCF10A [1] came out at 60.1%. Also, in the data set with MCF10A [2], the “5+ nucleoli phenotype percent effect” value was 26.2%. The “one-nucleolus phenotype percent effect” value in the data set with MCF10A [3] was -13.8%.
Regarding AGCACACUGAGCGAGCGGAC [hsa-miR-8064], the percent viability in the data set on MCF10A [1] amounted to 44.2%. Besides, in the data set on MCF10A [2], the “5+ nucleoli phenotype percent effect” value is -14.8%. Also, the “one-nucleolus phenotype percent effect” value in the data set on MCF10A [3] was -0.792%.
With UCUUUUCUUUGAGACUCACU [hsa-miR-627-3p], the percent viability in the data set on MCF10A [1] is 34.1%. Besides, the “5+ nucleoli phenotype percent effect” value in the data set on MCF10A [2] is 21.8%. Further, the “one-nucleolus phenotype percent effect” value in the data set with MCF10A [3] is -15.6%.
Regarding “CCAGCCACGGACUGAGAGUGCAU [hsa-miR-4691-3p]”, the percent viability in the data set on MCF10A [1] was 51.4%. Also, the “5+ nucleoli phenotype percent effect” value in the data set on MCF10A [2] turned out to be 26.3%. Further, the “one-nucleolus phenotype percent effect” value in the data set with MCF10A [3] is -11.4%.
Turning to CUGUACAGGCCACUGCCUUGC [hsa-let-7g-3p], in the data set with MCF10A [1], the percent viability was 55.1%. For the same sequence, the “5+ nucleoli phenotype percent effect” value in the data set with MCF10A [2] is -28.3%. The “one-nucleolus phenotype percent effect” value in the data set on MCF10A [3] is -2.69%.
For the sequence UUUGGUCCCCUUCAACCAGCUA [hsa-miR-133b], in the data set with MCF10A [1], the percent viability was found to be 52.5%. Also, in the data set on MCF10A [2], the “5+ nucleoli phenotype percent effect” value is -11.4%. For the same sequence, the “one-nucleolus phenotype percent effect” value in the data set on MCF10A [3] stood at 16.1%.
Take UCCCACUACUUCACUUGUGA [hsa-miR-4301]: in the data set with MCF10A [1], the percent viability was 45.1%. Moreover, the “5+ nucleoli phenotype percent effect” value with MCF10A [2] turned out to be 60.9%. In the data set on MCF10A [3], the “one-nucleolus phenotype percent effect” value was -19.4%.
The corresponding values for UUGCCAGGGCAGGAGGUGGAA [hsa-miR-5006-5p] are 69.9%, -13.7% and 0.389%.
The corresponding values for GGAGUGGGCUGGUGGUU [hsa-miR-4481] are 37.8%, 6.11% and 5.61%.
On the same counts, the results for “UGAGAGUGGAAUUCACAGUAUUU [hsa-miR-4693-3p]” are 23%, -31.4% and 35.2%.
“UAAUACUGCCGGGUAAUGAUGGA [hsa-miR-200c-3p]”: the percent viability in the data set on MCF10A [1] is 104%. The “5+ nucleoli phenotype percent effect” value in the data set with MCF10A [2] came to 62.3%. The “one-nucleolus phenotype percent effect” value in the data set on MCF10A [3] is -17%.
Consider AAUUCCCUUGUAGAUAACCCGG [hsa-miR-3938], for which the percent viability in the data set on MCF10A [1] worked out at 129%. For the same sequence, in the data set with MCF10A [2], the “5+ nucleoli phenotype percent effect” value turned out to be 51.2%. In addition, the “one-nucleolus phenotype percent effect” value with MCF10A [3] was -32%.
On the same counts, the results for UGUAGGAACAGUUGAAUUUUGGCU [hsa-miR-8065] are 58.9%, 19.8% and -24.6%.
The corresponding values for “AAAAGUAAUUGCGGUUUUUGCC [hsa-miR-548am-5p]” are 139%, 39.6% and -17.6%.
In the case of CAAAAACCGGCAAUUACUUUUG [hsa-miR-548ac], the percent viability in the data set on MCF10A [1] amounted to 72.6%. In addition, the “5+ nucleoli phenotype percent effect” value in the data set with MCF10A [2] was determined as 8.34%. In addition, the “one-nucleolus phenotype percent effect” value in the data set on MCF10A [3] was -15.1%.
The corresponding values for AUCCCACCACUGCCACCAU [hsa-miR-1260b] are 30.7%, 18.9% and -10.3%.
Consider “UGUCUUCUCUCCUCCCAAACAG [hsa-miR-6740-3p]”, for which the percent viability in the data set with MCF10A [1] was 9.9%. Also, the “5+ nucleoli phenotype percent effect” value in the data set on MCF10A [2] was -27.6%. For the same sequence, the “one-nucleolus phenotype percent effect” value with MCF10A [3] came to 42.8%.
The corresponding values for “CGGCCCCACGCACCAGGGUAAGA [hsa-miR-874-5p]” are 85.9%, 38.1% and -19.8%.
Consider “CACUCAGCCUUGAGGGCACUUUC [hsa-miR-512-5p]”, for which the percent viability with MCF10A [1] is 43.4%. In addition, the “5+ nucleoli phenotype percent effect” value in the data set with MCF10A [2] was -15.2%. For the same sequence, the “one-nucleolus phenotype percent effect” value in the data set with MCF10A [3] is 16.2%.
As to CGAAUCAUUAUUUGCUGCUCUA [hsa-miR-15b-3p], the percent viability in the data set with MCF10A [1] was 131%. Also, in the data set on MCF10A [2], the “5+ nucleoli phenotype percent effect” value stood at 28.9%. Also, the “one-nucleolus phenotype percent effect” value with MCF10A [3] was -19.7%.
The corresponding values for UUCAAGUAAUCCAGGAUAGGCU [hsa-miR-26a-5p] are 103%, 17.8% and -6.05%.
For the sequence “UUAGAGGCUGGAAUAGAGAUUCU [hsa-miR-6866-5p]”, the percent viability in the data set on MCF10A [1] came to 14.1%. The “5+ nucleoli phenotype percent effect” value with MCF10A [2] was -0.659%. Moreover, the “one-nucleolus phenotype percent effect” value with MCF10A [3] came to 9.98%.
The corresponding values for “CUGCAGCCACUUGGGGAACUGGU [hsa-miR-7156-3p]” are 57.4%, -7.7% and 8.88%.
The corresponding values for UGGGUUUACGUUGGGAGAACU [hsa-miR-629-5p] are 52.3%, -19.1% and 17.7%.

Values taken from the supplement of paper PMC10899765.
